From patent publication US12564623B2, “Methods and compositions for treating cancer” (The University of Chicago, priority 2017, dated 2026)
Entries after “also recorded” stand apart in the source; their conditions may differ.

Key:
[1] = target: T1, CD95 (Homo sapiens, UniProt P25445); conditions: Strand et al., Oncogene, 2004; cited from earlier work
T1 sequence (P25445 26-335): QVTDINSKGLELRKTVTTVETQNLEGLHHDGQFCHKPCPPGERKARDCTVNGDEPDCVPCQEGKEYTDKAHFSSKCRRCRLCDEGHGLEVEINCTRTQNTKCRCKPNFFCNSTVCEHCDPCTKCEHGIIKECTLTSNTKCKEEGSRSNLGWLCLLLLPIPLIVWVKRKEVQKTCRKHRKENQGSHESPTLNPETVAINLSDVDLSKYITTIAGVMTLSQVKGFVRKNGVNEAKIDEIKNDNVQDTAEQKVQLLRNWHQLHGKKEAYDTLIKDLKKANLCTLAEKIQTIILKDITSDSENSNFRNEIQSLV

[2] = target: alpha-1-anti-trypsin (A1AT) (Homo sapiens, UniProt P01009); experiment: Inhibition of elastase activity and killing by A1AT or FBS; format: biochemical; conditions: 15 mins, killing 6 h
Procedure: (§1) (FIG. 13A) MDA-MB-231 cancer cells were treated with various doses of purified native ELANE or purified native porcine pancreatic elastase (PPE) for 6 h, and killing was assessed by Calcein AM staining. (FIG. 13B). Purified native ELANE or purified native PPE was incubated with different concentrations of alpha-1-anti-trypsin (A1AT) for 15 mins. Catalytic activity was measured using a chromogenic substrate assay. Cancer cell killing capability was determined by treating MDA-MB-231 cancer cells with ELANE or PPE in the presence or absence of A1AT for 6h, followed by Calcein AM staining. (FIG. 13C) Catalytic activity was measured using a chromogenic substrate assay. Cancer cell killing capability was determined by treating MDA-MB-231 cancer cells with ELANE or PPE in the presence or absence of FBS for 6 h, followed by Calcein AM staining.
Elastase activity for purified native ELANE or purified native PPE at various dose were measured. It's corresponding killing ability was also tested on MDA-MB-231 cancer cells. Killing was assessed 6 hrs after treatment by Calcein AM staining. […] Killing was assessed 6 hrs after treatment by Calcein AM staining. […] Killing was assessed 6 hrs after treatment by Calcein AM staining.

[3] = target: T1, CD95; experiment: Recombinant CD95 degradation, SDS-PAGE and coomassie blue; format: biochemical; set-up: Recombinant proteins (1 μg) corresponding to full length CD95 (FL-CD95); conditions: purified CD95
Procedure: ELANE lowers CD95 levels in cancer cells and reduced CD95 levels are associated with apoptosis. (FIG. 8A) Recombinant proteins (1 μg) corresponding to full length CD95 (FL-CD95), N-terminal domain of CD95 (amino acids 1-173; N-CD95), or C-terminal domain of CD95 (amino acids 157-320; C-CD95) were inbuated with ELANE (0.05 μg) or vehicle (Veh) for 2 hrs at 37° C. Degradation was assessed by SDS-PAGE followed by coomassie blue staining. […] (FIG. 8C) Cancer cells were treated with ELANE (50 nM) for 1 hr, fixed in 10% formalin, and stained with N- or C-terminal specific anti-CD95 antibodies (green). Hoechst 33342 solution was used for nuclear staining (blue). Images were taken under 40×.
ELANE selectively cleaves the C-terminal domain of CD95. The CD95 pathway is essential for the survival of a wide range of cancer cells, but largely dispensable for normal cell survival (Adachi et al., Nat. Genet., 1995; Karray et al., J. Immunol., 2004). CD95 function can be modulated by proteolysis (Strand et al., Oncogene, 2004). To test CD95 involvement in ELANE mediated cell killing ELANE (0.05 μg) was incubated with 1 μg recombinant human C-terminal (aa. 157-320) or N-terminal (aa. 1-173) CD95 for 2 hrs at 37° C. Degradation was assessed by SDS-PAGE followed by staining with coomassie blue. C-terminal domain cleavage. N-terminal domain cleavage. Cancer cells were treated with ELANE (50 nM) for 1 hr, fixed in 10% formalin, and stained with N- or C-terminal specific anti-CD95 antibodies. Hoechst 33342 solution was used for nuclear staining. Images were taken under 40×. […] Mel888 cancer cells were treated with ELANE (50 nM) for various times, and CD95 degradation was assessed by western blot analysis with a C-terminal specific anti-CD95 antibody.
(§2) Other serine proteases cleave the C-terminal domain of CD95, and the ability to cleave the C-terminal domain is associated with cancer cell killing. (FIG. 12A) Full length recombinanat CD95 protein was incubated with various serine proteases (human ELANE (80 nM), PR3 (80 nM), CSTG (80 nM), PPE (80 nM), mouse ELANE (80 nM), rat ELANE (500 nM), GZMB (80 nM), or Trypsin (250 nM)), or other types of proteases (CTSC (80 nM); or MMP7 (80 nM), MMP9 (80 nM), CTSD (80 nM) not shown) at 37° C. for 2 hours. Degradation was assessed by SDS-PAGE followed by coomassie blue staining. (FIG. 12B) MDA-MB-231 cancer cells were incubated with various proteases for 24 hrs. Cell viability was assessed by Calcein AM staining.

[4] = tested on: MDA-MB-231 cells; experiment: Cancer cell killing, Calcein AM staining; format: cell-based, human
Procedure: Approach to identify the factor(s) mediating selective killing. A quantitative cancer cell killing assay was developed to track the bioactive factor(s). MDA-MB-231 cells were treated with various doses of PMN media and cell viability was assessed by Calcein AM live cells fluorescence staining. […] (FIG. 3B) PMN media was passed through a 0.22 μm filter, and protein concentration and killing activity on MDA-MB-231 cancer cells was measured in both pre- and post-filter solutions. […] ELANE and ECP levels in PMN media pre- and post-filtration were quantified by mass spectrometry (spectral counts).
To determine if ELANE and/or ECP were responsible, the inventors (1) immuno-depleted ELANE or ECP from PMN media; (2) treated cancer or normal cells with purified native ELANE or ECP from commercial sources. (FIG. 6A) ELANE or ECP were depleted from PMN media by immunoprecipitation; depletion was confirmed by western blotting. PMN media pre-depletion=Orig. and post-depletion=FT. Non-specific IgG was used as a control. (FIG. 6B) MDA-MB-231 cells or human monocyte-derived macrophages (HMDMs) were treated with purified native ELANE or ECP at various doses for 24h, and killing was assessed by Calcein AM staining. (FIG. 6C) MDA-MB-231 cells and HMDMs were treated with levels of ELANE (0.25 μg/mL) or ECP (0.05 μg/mL) that were present in the PMN media, alone or in combination for 24 hrs, and killing was examined by Calcein AM staining.
High doses of ECP or ELANE can kill cancer cells. The inventors sought to determine whether adding purified human ECP (Lee Biosolutions), human ELANE (Abcam), human DEFA1 (Abcam), human ANXA6 (R&D Systems) or human CASP3 (Abcam) individually could kill cancer cells without killing non-cancer cells. Increasing doses of each protein were added to MDA-MB-231 cells for 5h or human monocyte-derived macrophages (HMDMs) for 24 h and cell viability was determined by Calcein-AM.
ELANE and ECP synergize to selectively kill cancer cells. MDA-MB-231 and human monocyte-derived macrophages (HMDMs) were treated with levels of ELANE (0.25 μg/mL) or ECP (0.05 μg/mL) that were present in the PMN media, alone or in combination for 24 hrs. killing was examined by Calcein AM staining.
Combining chemotherapeutics and neutrophil conditioned media enhances the killing of human triple negative breast cancer cells. MDA-MB-231 cells were treated with neutrophil conditioned media (Neu-CM; 4 μg/mL), doxorubicin (DOX; 0.3 μM), or paclitaxel (PTX; 3 nM) for 4h, individually or in combination, and cell viability was assessed by Calcein-AM.
as §2
as §1, with “Cancer cell killing capability was determined by treating MDA-MB-231 cancer cells with ELANE or PPE in the presence or absence of FBS for 6 h, followed by Calcein AM staining.” left out

Chain of alpha-1-anti-trypsin (A1AT) (P01009 25-418, species assumed): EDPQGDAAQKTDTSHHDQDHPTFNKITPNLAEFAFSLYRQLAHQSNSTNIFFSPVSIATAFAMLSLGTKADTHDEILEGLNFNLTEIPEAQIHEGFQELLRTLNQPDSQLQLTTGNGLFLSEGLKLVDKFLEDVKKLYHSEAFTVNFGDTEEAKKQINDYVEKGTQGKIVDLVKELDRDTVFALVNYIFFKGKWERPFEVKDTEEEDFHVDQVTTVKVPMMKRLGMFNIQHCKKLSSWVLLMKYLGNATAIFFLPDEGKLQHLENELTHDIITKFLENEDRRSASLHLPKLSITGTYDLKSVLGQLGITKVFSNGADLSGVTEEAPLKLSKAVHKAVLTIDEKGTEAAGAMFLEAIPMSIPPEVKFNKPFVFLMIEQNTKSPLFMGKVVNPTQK

Substance	cleavage of CD95 [1]	susceptibility to inhibition by serine protease inhibitors [2]	cleavage of purified CD95 [3]	cancer cell killing by proteases [4]	toxicity to cancer cells, ELANE versus PPE ([4]; various doses, 6 h)
MMP7: protease previously shown to cleave the extracellular N-terminal domain of CD95	cleave the extracellular N-terminal domain of CD95	–	–	–	–
porcine pancreatic elastase [PPE]	–	more resistant to inhibition by serine protease inhibitors; also recorded: less susceptibility to alpha 1 anti-trypsin (A1AT) or serum blocking	cleaved purified CD95 with an identical degradation pattern to ELANE	killed cancer cells	equally toxic to cancer cells
